Experimental data taken from the Human Domainome abundance scans (Beltran et al. 2025).

B1: 3'-5' exoribonuclease 1, residues 65 to 114; numbered along this chain, Q8IV48 (parent)
chain: VYKEIAITNGCINRMSKEELRAKLSEFKLETRGVKDVLKKRLKNYYKKQK

Variants of: B1
Test: abundance fitness (aPCA) (normalised: wild type 0, dead -1); higher = more abundant; growth selection in yeast, the domain comes from the species named
Conditions: Homo sapiens

Abundance fitness of substitutions, site by site:
Y2: P 0.046; Q 0.076; R -0.072; S 0.028; V 0.021; W -0.069
K3: A -0.089; C -0.145; D -0.192; E 0.012; F -0.34; G -0.05; H -0.055; I -0.336; L -0.331; M -0.287; N 0.058; Q -0.035; R -0.131; S -0.06; T -0.081; V -0.294; W -0.509; Y -0.251
E4: A -0.113; C -0.161; D 0.003; F -0.214; G -0.093; H -0.173; I -0.287; K -0.251; L -0.334; M -0.144; N -0.057; P -0.107; Q -0.085; R -0.353; S -0.077; T -0.06; W -0.229; Y -0.164
I5: A 0.007; D 0.026; E -0.044; F -0.065; G 0.025; H -0.006; K -0.042; L -0.051; M 0.052; N -0.004; P -0.003; Q 0.041; R -0.101; S -0.004; T 0.066; V -0.037; W -0.225; Y -0.029
A6: C -0.172; D -0.183; E -0.092; F -0.078; G -0.084; H 0.022; I 0.019; L -0.082; M -0.096; N -0.003; P 0.007; Q -0.179; S -0.075; V 0.011; W -0.261; Y -0.008
I7: A -0.097; C -0.164; D -0.171; E -0.175; F -0.198; G -0.13; H -0.166; K -0.131; L 0.019; M -0.016; N -0.17; P -0.067; Q -0.141; R -0.178; S -0.142; T -0.1; V -0.091; W -0.287; Y -0.14
T8: C -0.29; D -0.274; E -0.24; F -0.472; G -0.215; H -0.268; K -0.07; L -0.388; M -0.161; P -0.069; Q -0.199; R -0.174; S -0.019; W -0.513; Y -0.49
N9: A -0.033; C -0.047; D -0.244; E -0.241; F -0.091; H -0.066; K 0.066; L -0.127; M 0.036; P 0.015; Q -0.174; S -0.067; T -0.12; V -0.092; W -0.331
G10: A -0.118; C -0.23; E -0.155; F -0.323; H -0.18; I -0.34; K -0.112; L -0.37; N -0.147; P -0.248; Q -0.125; R -0.248; S -0.146; T -0.121; W -0.401; Y -0.238
C11: A 0.046; D 0.067; E 0.071; F -0.104; G -0.058; H -0.048; I 0.007; K -0.039; L -0.053; M 0.057; N -0.04; P -0.278; Q 0.046; R -0.074; S 0.012; T 0.005; V 0.01; W -0.147; Y -0.052
I12: A -0.873; C -0.721; D -0.961; E -0.818; F -0.693; G -0.877; K -0.741
